Measurements from US5504197.

Target: PDGF-A (PDGF dimer composed of two A chains)

3T3 cell mitogenicity assay (tritiated thymidine incorporation) in the presence and absence of PDGF: > 2 fold
Substance: Platelet Derived Growth Factor-Associated Protein (PAP), rat, recombinant, expressed in bacteria
